Substitutions are numbered along the chain they refer to.
Key:
[1] = biological target: T1, TROP2 on NCI-H292 tumor cells (UniProt P09758 27-274); assay: Trop2 binding ELISA (TROP2 as ELISA antigen, not on cells), polypeptide complex titrated, OD 450 nm
T1 construct: whole, on cells; also called tumor-associated calcium signal transducer 2
T1 sequence (looked up): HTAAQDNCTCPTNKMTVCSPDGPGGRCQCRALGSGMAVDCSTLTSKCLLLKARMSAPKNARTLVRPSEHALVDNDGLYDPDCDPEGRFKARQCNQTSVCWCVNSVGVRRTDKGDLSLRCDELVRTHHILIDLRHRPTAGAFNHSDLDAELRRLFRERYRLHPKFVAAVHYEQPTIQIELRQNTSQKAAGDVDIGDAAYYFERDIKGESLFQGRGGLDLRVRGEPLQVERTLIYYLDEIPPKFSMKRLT

[2] = biological target: T1, TROP2 on NCI-H292 tumor cells; assay: cell-based or functional assay
[3] = biological target: T2, cynomolgus monkey serum albumin (cynomolgus monkey, UniProt A2V9Z4 25-608); assay: ELISA on an albumin coated plate, single domain antibody titrated, HRP secondary antibody, OD 450 nm
T2 construct: Coated on ELISA plates; also called cyno albumin
T2 sequence (A2V9Z4 25-608 limits assumed): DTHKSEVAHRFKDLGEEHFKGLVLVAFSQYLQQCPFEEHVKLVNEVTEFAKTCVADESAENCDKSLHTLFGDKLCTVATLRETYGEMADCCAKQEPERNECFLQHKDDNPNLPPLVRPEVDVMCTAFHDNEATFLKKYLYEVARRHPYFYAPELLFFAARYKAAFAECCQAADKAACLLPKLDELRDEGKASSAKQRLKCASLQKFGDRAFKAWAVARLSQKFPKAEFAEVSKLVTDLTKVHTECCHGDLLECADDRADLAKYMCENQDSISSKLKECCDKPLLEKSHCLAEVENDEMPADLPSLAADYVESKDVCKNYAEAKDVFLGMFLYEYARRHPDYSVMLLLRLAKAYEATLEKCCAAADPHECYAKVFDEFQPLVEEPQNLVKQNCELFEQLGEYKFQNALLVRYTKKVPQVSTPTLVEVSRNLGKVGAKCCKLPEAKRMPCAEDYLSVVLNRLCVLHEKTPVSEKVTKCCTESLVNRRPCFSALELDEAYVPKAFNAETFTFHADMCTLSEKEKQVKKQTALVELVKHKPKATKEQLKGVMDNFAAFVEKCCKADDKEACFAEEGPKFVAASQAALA

[4] = biological target: T3, human serum albumin (human, UniProt P02768 25-609); assay: ELISA, albumin coated plates, single domain antibody titrated, pH 5.5
T3 construct: also called HSA; HSA-biotin

[5] = biological target: T2, cynomolgus monkey serum albumin; assay: as above
[6] = biological target: T3, human serum albumin; assay: BLI (Octet RED96), biotinylated HSA on streptavidin biosensors, HE-1 titrated 100-3.125 nM, pH 7.4, 1:1 fit
[7] = biological target: T3, human serum albumin; assay: ELISA on an albumin coated plate, single domain antibody titrated, HRP secondary antibody, OD 450 nm
[8] = biological target: T3, human serum albumin; assay: BLI (Octet RED96), biotinylated HSA on streptavidin biosensors, HE-1 titrated 100-3.125 nM, association and dissociation at pH 5.5, 1:1 fit
[9] = biological target: T4, Mouse Albumin (mouse, UniProt P07724); assay: ELISA on an albumin coated plate, single domain antibody titrated, HRP secondary antibody, OD 450 nm
T4 construct: coated on the ELISA plate; not described further; also called mouse serum albumin
T4 sequence (P07724 25-608 limits assumed): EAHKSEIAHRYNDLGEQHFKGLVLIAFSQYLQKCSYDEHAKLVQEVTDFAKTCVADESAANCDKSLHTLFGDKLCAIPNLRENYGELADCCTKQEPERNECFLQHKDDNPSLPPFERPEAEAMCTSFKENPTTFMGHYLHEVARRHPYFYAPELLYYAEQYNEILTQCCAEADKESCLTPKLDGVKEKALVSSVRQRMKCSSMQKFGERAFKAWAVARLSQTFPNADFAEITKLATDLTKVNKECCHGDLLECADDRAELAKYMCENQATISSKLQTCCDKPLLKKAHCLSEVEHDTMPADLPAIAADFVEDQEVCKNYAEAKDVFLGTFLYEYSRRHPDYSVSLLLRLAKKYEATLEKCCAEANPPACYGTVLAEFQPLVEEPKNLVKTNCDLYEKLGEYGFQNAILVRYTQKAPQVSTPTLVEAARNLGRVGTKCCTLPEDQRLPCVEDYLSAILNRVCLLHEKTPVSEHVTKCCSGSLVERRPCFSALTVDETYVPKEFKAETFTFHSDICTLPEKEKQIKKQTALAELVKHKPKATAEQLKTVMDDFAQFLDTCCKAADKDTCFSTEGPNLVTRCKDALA

[10] = biological target: T3, human serum albumin; assay: ELISA, albumin coated plates, single domain antibody titrated, pH 7.4
[11] = biological target: T2, cynomolgus monkey serum albumin; assay: as above
[12] = biological target: T3, human serum albumin; assay: Octet, biotinylated human serum albumin on streptavidin biosensors, acidic buffer, association 1 (saturation using SDA)

B1: Polypeptide complex PC3 (bispecific antibody)
light: DIQLTQSPSSLSASVGDRVSITCKASQDVSIAVAWYQQKPGKAPKLLIYSASYRYTGVPDRFSGSGSGTDFTLTISSLQPEDFAVYYCQQHYITPLTFGAGTKVEIKRTVAAPSVFIFPPSDEQLKSGTASVVCLLNNFYPREAKVQWKVDNALQSGNSQESVTEQDSKDSTYSLSSTLTLSKADYEKHKVYACEVTHQGLSSPVTKSFNRGEC
heavy: QTVVTQEPSLTVSPGGTVTLTCRSSTGAVTTSNYANWVQQKPGQAPRGLIGGTNKRAPGTPARFSGSLLGGKAALTLSGVQPEDEAEYYCALWYSNLWVFGGGTKLTVLGGGGSGGGGSGGGGSEVQLVESGGGLVQPGGSLKLSCAASGFTFNTYAMNWVRQAPGKGLEWVARIRSKYNNYATYYADSVKDRFTISRDDSKNTAYLQMNNLKTEDTAVYYCVRHGNFGNSYVSWFAYWGQGTLVTVSSGGGGSQVQLQQSGSELKKPGASVKVSCKASGYTFTNYGMNWVKQAPGQGLKWMGWINTYTGEPTYTDDFKGRFAFSLDTSVSTAYLQISSLKADDTAVYFCARGGFGSSYWYFDVWGQGSLVTVSSASTKGPSVFPLAPSSKSTSGGTAALGCLVKDYFPEPVTVSWNSGALTSGVHTFPAVLQSSGLYSLSSVVTVPSSSLGTQTYICNVNHKPSNTKVDKKVEPKSC
notes: TROP2 and CD3 targeting regions (anti-CD3 scFv fused to the Fab heavy chain); No mask and no HE-1
How did the “EC50 (read off the curve)” value [1] turn out when B1 was run?
The value was ~0.2 nM.

And the “H292 IC50 (pM), 72 hours, tumor cell killing with CD8+ T cells” value [2]?
Its value is 0.88 pM.

B2: HE-1 anti-albumin (VHH)
VHH: EVQLVESGGGLVQPGGSLRLSCAASGSTFYTAVMGWVRQAPGKGLEWVAAIRWTALTTSYADSVKGRFTISRDGAKTTLYLQMNSLRPEDTAVYYCAARGTLGLFTTADSYDYWGQGTLVTVSS
notes: Single domain antibody; also called half-life extending single domain antibody
How did the “EC50 (read off the curve)” value [3] turn out when B2 was run?
The value was ~2 nM.

And the EC50 [4]?
The EC50 was 0.9 nM.

And the EC50 [5]?
Its EC50 is 1.3 nM.

And the Kd [6]?
The Kd was 5.98 nM.

And the koff [6]?
Its koff is 0.00341 s⁻¹.

What about the kon [6] of the same binder?
The kon was 571000 M⁻¹ s⁻¹.

And the “EC50 (read off the curve)” value [7]?
Its value is ~1 nM.

What about the Kd [8] of the same binder?
Its Kd is 4.19 nM.

What about the koff [8] of the same binder?
The koff was 0.00186 s⁻¹.

What about the kon [8] of the same binder?
The kon was 444000 M⁻¹ s⁻¹.

Does B2 bind [9]?
Result: binds

And the EC50 [10]?
The EC50 was 1 nM.

And the EC50 [11]?
Its EC50 is 1.3 nM.

B3: HE-2 (VHH)
VHH: B2 VHH with S110H
notes: also called (HE-2) Anti-albumin
Does B3 bind [12]?
Result: binds

B4: Polypeptide complex PC4 (bispecific antibody)
light: GGVDFCKIYSWPVCHQGGGGSGGLSGRSDAGSPLGLAGSGGSDIQLTQSPSSLSASVGDRVSITCKASQDVSIAVAWYQQKPGKAPKLLIYSASYRYTGVPDRFSGSGSGTDFTLTISSLQPEDFAVYYCQQHYITPLTFGAGTKVEIKRTVAAPSVFIFPPSDEQLKSGTASVVCLLNNFYPREAKVQWKVDNALQSGNSQESVTEQDSKDSTYSLSSTLTLSKADYEKHKVYACEVTHQGLSSPVTKSFNRGEC
heavy: not shown
How did the “H292 IC50 (pM), 72 hours, tumor cell killing with CD8+ T cells” value [2] turn out when B4 was run?
Its value is 4120 pM.

From patent publication US20240034814A1 (JANUX THERAPEUTICS, published 2024)
